Reference: PMC7667886, “Who with whom: functional coordination of E2 enzymes by RING E3 ligases during poly‐ubiquitylation” (The EMBO Journal, 2020)
Numbering of substitutions follows the chain as printed.

Key:
[1] = target: T1, Ubc7 containing only the catalytic cysteine (C89only = C39A/C141S) (yeast, UniProt Q02159 1-165, C39A | C141S); experiment: SEC; purified Ubc7 and U7BR mixed in a 1:2 ratio, complex purified on Superdex 75; settings: both partners purified
T1 construct: Ubc7, yeast ERAD E2 enzyme, single-cysteine variant C39A/C141S; also called Ubc7(C89only)
T1 sequence (looked up): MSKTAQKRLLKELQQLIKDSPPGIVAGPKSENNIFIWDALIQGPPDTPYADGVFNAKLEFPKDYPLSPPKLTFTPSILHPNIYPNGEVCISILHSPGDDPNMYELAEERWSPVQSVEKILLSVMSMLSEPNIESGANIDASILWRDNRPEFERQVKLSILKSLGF

Ubc7(wt) = target: T2, Ubc7(wt) (yeast, UniProt Q02159 1-165); experiment: as above; settings: both partners purified
T2 construct: Ubc7, yeast ERAD E2 enzyme, wild type
T2 sequence (looked up): T1 sequence (looked up) with A39C, S141C

B1: U7BR domain of Cue1 (aa 150–203) (domain or fragment, yeast, UniProt P38428 150-203, looked up)
chain: NLLDKFHVDLNEDMSNLSFKDLDIEERKRLLVWQARKNLETKLQSDKDLQSLLT
notes: Treated on Ni-NTA with thrombin and GST-hSENP1, then washed and eluted with imidazole; source: E. coli BL21/DE3, purified (Ni-NTA, incubation with thrombin and GST-hSENP1, imidazole elution, Superdex 75)
B1: binds [1]; binds (Ubc7(wt)).
